Source: patent US20250090676A1

Molecular target: human folate receptor alpha on cells (human) (UniProt P15328)
Assay: cell-based or functional assay

Chain of human folate receptor alpha on cells (human) (P15328 25-234 limits assumed): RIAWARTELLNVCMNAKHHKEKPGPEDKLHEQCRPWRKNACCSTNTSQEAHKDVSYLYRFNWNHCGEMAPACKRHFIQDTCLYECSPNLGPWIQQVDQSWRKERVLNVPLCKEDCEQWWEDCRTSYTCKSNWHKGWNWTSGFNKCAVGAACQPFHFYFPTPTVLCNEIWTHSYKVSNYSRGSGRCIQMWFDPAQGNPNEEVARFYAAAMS

## ADC Molecule 21 (Mov19-sulfo-SPDB-DM4) (antibody)
  fold shift of cell killing EC50 on Igrov1 cells on addition of naked antibody: 3 fold
